{"source": "patent US20110118131A1", "about": "(published 2011)", "data": [{"molecular_target": "T1, IL-1β (UniProt P01584 117-269)", "T1 construct": "Antigen of XPA23", "experiment": "Biacore, Fab periplasmic extract; -1 = no binding by the table's footnote", "values": [{"binder": "XPA23 heavy chain R59A (Fab, V domains shown, Fab, periplasmic extract; also called C5A R59A) VH: EVQLLESGGGLVQPGGSLRLSCAASGFTFSKYFMFWVRQAPGKGLEWVSVISPSGGMTAYADSVKGRFTISRDNSKNTLYLQMNSLRAEDTAVYYCARVGYGGNSDYWGQGTLVTVSS VL: DIQMTQSPSSVSASVGDRLTIICRASQDINRWLAWYQQTPGNAPKLLIHSATSLQSGVPSRFSGSGSGTDFTLTINSLQPEDFATYYCQQADSFPLTFGGGTKVEIK", "binding result": "no binding"}, {"binder": "XPA23 heavy chain S52I (Fab, V domains shown, Fab, periplasmic extract; also called C5A S52I) VH: EVQLLESGGGLVQPGGSLRLSCAASGFTFSKYFMFWVRQAPGKGLEWVSVIIPSGGMTRYADSVKGRFTISRDNSKNTLYLQMNSLRAEDTAVYYCARVGYGGNSDYWGQGTLVTVSS VL: DIQMTQSPSSVSASVGDRLTIICRASQDINRWLAWYQQTPGNAPKLLIHSATSLQSGVPSRFSGSGSGTDFTLTINSLQPEDFATYYCQQADSFPLTFGGGTKVEIK", "binding result": "no binding"}, {"binder": "XPA23 heavy chain S105L (Fab, V domains shown, Fab, periplasmic extract; also called C5A S105L) VH: EVQLLESGGGLVQPGGSLRLSCAASGFTFSKYFMFWVRQAPGKGLEWVSVISPSGGMTRYADSVKGRFTISRDNSKNTLYLQMNSLRAEDTAVYYCARVGYGGNLDYWGQGTLVTVSS VL: DIQMTQSPSSVSASVGDRLTIICRASQDINRWLAWYQQTPGNAPKLLIHSATSLQSGVPSRFSGSGSGTDFTLTINSLQPEDFATYYCQQADSFPLTFGGGTKVEIK", "binding result": "no binding"}, {"binder": "XPA23 heavy chain S30P (Fab, V domains shown, Fab, periplasmic extract; also called C5A S30P) VH: EVQLLESGGGLVQPGGSLRLSCAASGFTFPKYFMFWVRQAPGKGLEWVSVISPSGGMTRYADSVKGRFTISRDNSKNTLYLQMNSLRAEDTAVYYCARVGYGGNSDYWGQGTLVTVSS VL: DIQMTQSPSSVSASVGDRLTIICRASQDINRWLAWYQQTPGNAPKLLIHSATSLQSGVPSRFSGSGSGTDFTLTINSLQPEDFATYYCQQADSFPLTFGGGTKVEIK", "binding result": "no binding"}, {"binder": "XPA23 heavy chain S52L (Fab, V domains shown, Fab, periplasmic extract; also called C5A S52L) VH: EVQLLESGGGLVQPGGSLRLSCAASGFTFSKYFMFWVRQAPGKGLEWVSVILPSGGMTRYADSVKGRFTISRDNSKNTLYLQMNSLRAEDTAVYYCARVGYGGNSDYWGQGTLVTVSS VL: DIQMTQSPSSVSASVGDRLTIICRASQDINRWLAWYQQTPGNAPKLLIHSATSLQSGVPSRFSGSGSGTDFTLTINSLQPEDFATYYCQQADSFPLTFGGGTKVEIK", "binding result": "no binding"}, {"binder": "XPA23 heavy chain R59V (Fab, V domains shown, Fab, periplasmic extract; also called C5A R59V) VH: EVQLLESGGGLVQPGGSLRLSCAASGFTFSKYFMFWVRQAPGKGLEWVSVISPSGGMTVYADSVKGRFTISRDNSKNTLYLQMNSLRAEDTAVYYCARVGYGGNSDYWGQGTLVTVSS VL: DIQMTQSPSSVSASVGDRLTIICRASQDINRWLAWYQQTPGNAPKLLIHSATSLQSGVPSRFSGSGSGTDFTLTINSLQPEDFATYYCQQADSFPLTFGGGTKVEIK", "binding result": "no binding"}, {"binder": "XPA23 heavy chain S30V (Fab, V domains shown, Fab, periplasmic extract; also called C5A S30V) VH: EVQLLESGGGLVQPGGSLRLSCAASGFTFVKYFMFWVRQAPGKGLEWVSVISPSGGMTRYADSVKGRFTISRDNSKNTLYLQMNSLRAEDTAVYYCARVGYGGNSDYWGQGTLVTVSS VL: DIQMTQSPSSVSASVGDRLTIICRASQDINRWLAWYQQTPGNAPKLLIHSATSLQSGVPSRFSGSGSGTDFTLTINSLQPEDFATYYCQQADSFPLTFGGGTKVEIK", "binding result": "no binding"}, {"binder": "XPA23 heavy chain R59I (Fab, V domains shown, Fab, periplasmic extract; also called C5A R59I) VH: EVQLLESGGGLVQPGGSLRLSCAASGFTFSKYFMFWVRQAPGKGLEWVSVISPSGGMTIYADSVKGRFTISRDNSKNTLYLQMNSLRAEDTAVYYCARVGYGGNSDYWGQGTLVTVSS VL: DIQMTQSPSSVSASVGDRLTIICRASQDINRWLAWYQQTPGNAPKLLIHSATSLQSGVPSRFSGSGSGTDFTLTINSLQPEDFATYYCQQADSFPLTFGGGTKVEIK", "binding result": "no binding"}]}]}
